Target: Escherichia coli thiol peroxidase, oxidized (disulfide) state (Escherichia coli) (UniProt P0A862)
Test: SEC-MALS

Substance: Escherichia coli thiol peroxidase, oxidized (disulfide) state (from UniProt P0A862 1-168) (enzyme)
- stoichiometry N: 3
